# Experiments:
# [1] = biological target: T1, recombinant human PSMA (prostate-specific membrane antigen), biotin-tagged (human, UniProt Q04609 44-750, biotin tag (site not stated)); test: ELISA on plates coated with recombinant PSMA, two-fold dilution series, goat anti-human-HRP and TMB
# T1 construct: also called biotin-tagged PSMA; biotin-labelled PSMA
# [2] = biological target: T2, human PSMA displayed on the surface of LNCaP cells (human, UniProt Q04609 1-750); test: flow cytometry on LNCaP cells, IgG1 titrated
# T2 construct: Endogenous PSMA on living LNCaP cells; also called PSMA-positive LNCaP cells
# Experimental: Flow cytometry was used to analyze affinity and specificity of 5D3-hFabs for PSMA in its physiological environment, i.e., at the surface of living cells. To this end, LNCaP and DU145 cells were used as representatives of PSMA-positive and PSMA-negative cell lines, respectively, in a protocol described previously (Novakova, Belousova et al. (2020), Int. J. Mol. Sci., 21(18):6672). Briefly, cells were treated by three-fold dilution series of 5D3-hFabs in the concentration range 6000 nM-0.42 pM. Bound 5D3-hFabs were detected by the combination of anti-Strep tag antibody and goat anti-mouse secondary antibody conjugated to Alexa Fluor 647. Cell samples were immediately analyzed using a LSRFortessa flow cytometer.
# Flow cytometry was used to analyze affinity and specificity of humanized 5D3-IgG1s for PSMA in its physiological environment as described above and data are shown in FIG. 11 and Table 2.
# [3] = biological target: T1, recombinant human PSMA …; test: native ELISA, streptavidin-captured biotin-tagged PSMA, IgG1 titrated
# Experimental: Native ELISA was used to measure affinity of 5D3-hFabs for human PSMA. Experiments were performed in 96-well MaxiSorp plates coated with streptavidin complexed with biotin-tagged PSMA. Purified 5D3-hFabs were applied in 2-fold dilution series in the concentration range of 2000 nM-0.95 pM and goat anti-human secondary antibody conjugated to horseradish peroxidase, together with the TMB substrate, was used for 5D3-hFabs detection. Data were processed using a Prism 6 software (GraphPad, San Diego, CA) and binding curves fitted using an embedded non-linear curve-fitting algorithm (FIG. 4, Table 1). Affinity of all variants tested was in a single-digit nanomolar range (1.8-2.7 nM) and virtually identical to the parent murine and chimeric Fabs, documenting successful humanization results.
# Native ELISA was used to measure affinity of humanized 5D3-IgG1s for human PSMA in an experimental setup described above and binding curves together with corresponding KD values shown in FIG. 10 and Table 2, respectively. Affinity of all variants tested was in a picomolar range (260-380 pM) and virtually identical to the parent murine and chimeric full-length IgG1s, documenting successful outcome of the humanization process.
# [4] = biological target: T1, recombinant human PSMA …; test: ELISA on plates coated with recombinant PSMA, column head 'ELISA (nM)'
# Experimental: (§1) FIG. 16—Affinities of optimized full-length antibodies determined by ELISA. Plates coated with recombinant PSMA were probed with two-fold dilution series of individual antibodies and binding was visualized using goat anti-human secondary antibody conjugated to horseradish peroxidase together with the TMB substrate. Binding curves were fitted using a non-linear regression algorithm.
# (§2) Also, the affinity of the optimized humanized 5D3 variants was determined by ELISA (FIG. 16, Table 4).
# [5] = biological target: T1, recombinant human PSMA …; test: PSMA ELISA on plates coated with recombinant PSMA, two-fold dilution series, goat anti-human-HRP and TMB
# [6] = biological target: T1, recombinant human PSMA …; test: as above; remark: listed apart in the source
# Experimental: as §1, §2
# T1 sequence (Q04609 44-750 limits assumed): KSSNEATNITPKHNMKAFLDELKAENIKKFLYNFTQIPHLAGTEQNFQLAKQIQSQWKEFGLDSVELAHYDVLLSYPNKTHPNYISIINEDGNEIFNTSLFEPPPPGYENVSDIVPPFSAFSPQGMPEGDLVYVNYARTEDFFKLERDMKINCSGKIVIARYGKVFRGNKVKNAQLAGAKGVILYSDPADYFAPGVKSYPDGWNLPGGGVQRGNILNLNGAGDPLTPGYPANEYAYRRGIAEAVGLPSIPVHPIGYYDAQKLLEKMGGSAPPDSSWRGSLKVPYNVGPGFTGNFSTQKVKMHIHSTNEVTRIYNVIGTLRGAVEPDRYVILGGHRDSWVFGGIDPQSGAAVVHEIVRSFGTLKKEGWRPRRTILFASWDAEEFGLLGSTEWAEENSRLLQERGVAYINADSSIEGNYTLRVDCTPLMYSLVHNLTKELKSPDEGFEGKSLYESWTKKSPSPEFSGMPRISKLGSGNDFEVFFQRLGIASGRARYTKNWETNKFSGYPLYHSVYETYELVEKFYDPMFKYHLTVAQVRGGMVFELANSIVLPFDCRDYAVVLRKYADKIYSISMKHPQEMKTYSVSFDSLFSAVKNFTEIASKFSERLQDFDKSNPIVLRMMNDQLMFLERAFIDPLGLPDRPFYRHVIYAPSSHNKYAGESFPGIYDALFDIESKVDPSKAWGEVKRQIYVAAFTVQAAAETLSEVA
# T2 sequence (Q04609 whole entry): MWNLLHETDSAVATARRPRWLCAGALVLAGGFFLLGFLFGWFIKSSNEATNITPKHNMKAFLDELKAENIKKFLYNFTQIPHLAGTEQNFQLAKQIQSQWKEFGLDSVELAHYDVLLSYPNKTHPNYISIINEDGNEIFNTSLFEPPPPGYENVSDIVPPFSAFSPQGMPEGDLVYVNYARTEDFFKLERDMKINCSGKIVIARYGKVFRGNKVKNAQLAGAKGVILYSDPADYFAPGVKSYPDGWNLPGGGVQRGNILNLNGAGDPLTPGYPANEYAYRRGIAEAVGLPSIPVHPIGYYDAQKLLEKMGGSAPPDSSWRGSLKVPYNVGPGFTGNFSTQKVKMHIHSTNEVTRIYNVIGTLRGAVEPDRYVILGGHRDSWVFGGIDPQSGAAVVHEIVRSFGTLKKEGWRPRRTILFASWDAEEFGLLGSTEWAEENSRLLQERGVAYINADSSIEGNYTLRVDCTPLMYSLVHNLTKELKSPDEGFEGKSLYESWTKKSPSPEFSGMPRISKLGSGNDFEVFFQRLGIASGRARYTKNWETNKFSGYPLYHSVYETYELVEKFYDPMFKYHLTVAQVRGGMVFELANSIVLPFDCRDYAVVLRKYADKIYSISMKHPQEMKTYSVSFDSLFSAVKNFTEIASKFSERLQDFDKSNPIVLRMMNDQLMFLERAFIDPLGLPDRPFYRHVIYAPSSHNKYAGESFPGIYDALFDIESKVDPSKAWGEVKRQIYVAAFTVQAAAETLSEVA
EC50 (read off the curve) [1] [nM],Kd [2] [nM],Kd [3] [nM],Kd [4] [nM],EC50 (read off the curve) [5] [nM],EC50 (read off the curve) [6] [nM],Binder
~0.3,0.64,0.26,,,,"2-5D3-IgG1 (antibody, V domains shown, also called full-length humanized 5D3 version 2) VH: QVQLVQSGAEVKKPGASVKVSCKASGYAFNTSWMNWVRQAPGQGLEYIGRIYPGDGDTNYNGKFKGKATMTADKSISTVYMEVRRLRSDDTAVYYCARGEWYLYYFDYWGQGTLVTVSS VL: DIQMTQSPSSLSASVGDRVTITCSASQGINNFLTWYQHEPGKALKLLIYYTSSLHSGVPSRFSGSGSGTDYTLTISTLQPEDFATYYCQQYSNLPFTFGGGTKVEIK"
~0.4,0.77,0.39,,,,"5-5D3-IgG1 (antibody, V domains shown, also called full-length humanized 5D3 version 5) VH: QVQLVQSGPEVKKPGASVRLSCKASGYAFNTSWMNWVRQAPGQGLEWIGRIYPGDGDTNYNGKFKGKATMTADKSTNTAYMELRSLRSDDTAVYYCGRGEWYLYYFDYWGQGTLVTVSS VL: DIQMTQSPSSVSASVGDRVTISCSASQGINNFLTWYQQKLGKALQLLIYYTSSLHSGVPSRFSGSGSGTDYTLTISSLQPEDFATYYCQQYSNLPFTFGPGTKVDIK"
~0.4,0.56,0.38,0.25,~0.4,~0.5,"6-5D3-IgG1 (antibody, V domains shown, N-glycosylation at VH N30, also called h5D3; humanized 5D3) VH: EVQLVESGGGLVQPGGSLRLSCAASGYAFNTSWMNWVRQAPGKGLEWISRIYPGDGDTNYNGKFKGKATISADKSKNTLYLQMNSLRAEDTAVYYCARGEWYLYYFDYWGQGTLVTVSS VL: DIQMTQSPSSLSASVGDRVTITCSASQGINNFLTWYQQKPGKALKLLIYYTSSLHSGVPSRFSGSGSGTDYTLTISSLQPEDFATYYCQQYSNLPFTFGQGTKVEIK"
,,,0.34,~0.4,,"h5D3 variant HVg2 (antibody, human IgG1, V domains shown, Full-length human IgG1 kappa variant of h5D3 (antibody 6)) VH: EVQLVESGGGLVQPGGSLRLSCAASGYAFQTSWMNWVRQAPGKGLEWISRIYPGDADTNYNAKFKGKATISADKSKNTLYLQMNSLRAEDTAVYYCARGEWYLYYFDYWGQGTLVTVSS VL: DIQMTQSPSSLSASVGDRVTITCSASQGINNFLTWYQQKPGKALKLLIYYTSSLHSGVPSRFSGSGSGTDYTLTISSLQPEDFATYYCQQYSNLPFTFGQGTKVEIK"
,,,0.93,~0.9,,"h5D3 variant HVg3 (antibody, human IgG1, V domains shown, Full-length human IgG1 kappa variant of h5D3 (antibody 6)) VH: EVQLVESGGGLVQPGGSLRLSCAASGYAFQTSWMNWVRQAPGKGLEWISRIYPGEGETNYNAKFKGKATISADKSKNTLYLQMNSLRAEDTAVYYCARGEWYLYYFDYWGQGTLVTVSS VL: DIQMTQSPSSLSASVGDRVTITCSASQGINNFLTWYQQKPGKALKLLIYYTSSLHSGVPSRFSGSGSGTDYTLTISSLQPEDFATYYCQQYSNLPFTFGQGTKVEIK"
,,,0.37,,~0.4,"h5D3 variant LVg2HVg7 (antibody, human IgG1, V domains shown, Full-length human IgG1 kappa variant of h5D3 (antibody 6)) VH: EVQLVESGGGLVQPGGSLRLSCAASGYAFQTSWMNWVRQAPGKGLEWISRIYPGDGDTNYNGKFKGKATISADKSKNTLYLQMNSLRAEDTAVYYCARGEWYLYYFDYWGQGTLVTVSS VL: DIQMTQSPSSLSASVGDRVTITCSASQGIENFLTWYQQKPGKALKLLIYYTSSLHSGVPSRFSGSGSGTDYTLTISSLQPEDFATYYCQQYSNLPFTFGQGTKVEIK"
,,,2.69,~3,,"h5D3 variant LVg2HVg3 (antibody, human IgG1, V domains shown, Full-length human IgG1 kappa variant of h5D3 (antibody 6)) VH: EVQLVESGGGLVQPGGSLRLSCAASGYAFQTSWMNWVRQAPGKGLEWISRIYPGEGETNYNAKFKGKATISADKSKNTLYLQMNSLRAEDTAVYYCARGEWYLYYFDYWGQGTLVTVSS VL: DIQMTQSPSSLSASVGDRVTITCSASQGIENFLTWYQQKPGKALKLLIYYTSSLHSGVPSRFSGSGSGTDYTLTISSLQPEDFATYYCQQYSNLPFTFGQGTKVEIK"
,,,0.47,~0.5,,"h5D3 variant LVg2HVg2 (antibody, human IgG1, V domains shown, Full-length human IgG1 kappa variant of h5D3 (antibody 6)) VH: EVQLVESGGGLVQPGGSLRLSCAASGYAFQTSWMNWVRQAPGKGLEWISRIYPGDADTNYNAKFKGKATISADKSKNTLYLQMNSLRAEDTAVYYCARGEWYLYYFDYWGQGTLVTVSS VL: DIQMTQSPSSLSASVGDRVTITCSASQGIENFLTWYQQKPGKALKLLIYYTSSLHSGVPSRFSGSGSGTDYTLTISSLQPEDFATYYCQQYSNLPFTFGQGTKVEIK"
,,,0.35,,~0.4,"h5D3 variant HVg7 (antibody, human IgG1, V domains shown, Full-length human IgG1 kappa variant of h5D3 (antibody 6)) VH: EVQLVESGGGLVQPGGSLRLSCAASGYAFQTSWMNWVRQAPGKGLEWISRIYPGDGDTNYNGKFKGKATISADKSKNTLYLQMNSLRAEDTAVYYCARGEWYLYYFDYWGQGTLVTVSS VL: DIQMTQSPSSLSASVGDRVTITCSASQGINNFLTWYQQKPGKALKLLIYYTSSLHSGVPSRFSGSGSGTDYTLTISSLQPEDFATYYCQQYSNLPFTFGQGTKVEIK"
,,,0.06,,~0.2,"h5D3 variant HVg5 (antibody, human IgG1, V domains shown, Full-length human IgG1 kappa variant of h5D3 (antibody 6)) VH: EVQLVESGGGLVQPGGSLRLSCAASGYAFQTSWMNWVRQAPGKGLEWISRIYPGEGSTNYNAKFKGKATISADKSKNTLYLQMNSLRAEDTAVYYCARGEWYLYYFDYWGQGTLVTVSS VL: DIQMTQSPSSLSASVGDRVTITCSASQGINNFLTWYQQKPGKALKLLIYYTSSLHSGVPSRFSGSGSGTDYTLTISSLQPEDFATYYCQQYSNLPFTFGQGTKVEIK"
,,,0.2,,~0.4,"h5D3 variant LVg2HVg5 (antibody, human IgG1, V domains shown, Full-length human IgG1 kappa variant of h5D3 (antibody 6)) VH: EVQLVESGGGLVQPGGSLRLSCAASGYAFQTSWMNWVRQAPGKGLEWISRIYPGEGSTNYNAKFKGKATISADKSKNTLYLQMNSLRAEDTAVYYCARGEWYLYYFDYWGQGTLVTVSS VL: DIQMTQSPSSLSASVGDRVTITCSASQGIENFLTWYQQKPGKALKLLIYYTSSLHSGVPSRFSGSGSGTDYTLTISSLQPEDFATYYCQQYSNLPFTFGQGTKVEIK"
,,,0.29,~0.4,,"h5D3 variant LVg2 (antibody, human IgG1, V domains shown, Full-length human IgG1 kappa variant of h5D3 (antibody 6)) VH: EVQLVESGGGLVQPGGSLRLSCAASGYAFNTSWMNWVRQAPGKGLEWISRIYPGDGDTNYNGKFKGKATISADKSKNTLYLQMNSLRAEDTAVYYCARGEWYLYYFDYWGQGTLVTVSS VL: DIQMTQSPSSLSASVGDRVTITCSASQGIENFLTWYQQKPGKALKLLIYYTSSLHSGVPSRFSGSGSGTDYTLTISSLQPEDFATYYCQQYSNLPFTFGQGTKVEIK"
,,,0.36,,~0.4,"h5D3 variant HVg4 (antibody, human IgG1, V domains shown, Full-length human IgG1 kappa variant of h5D3 (antibody 6)) VH: EVQLVESGGGLVQPGGSLRLSCAASGYAFQTSWMNWVRQAPGKGLEWISRIYPGEGDTNYNAKFKGKATISADKSKNTLYLQMNSLRAEDTAVYYCARGEWYLYYFDYWGQGTLVTVSS VL: DIQMTQSPSSLSASVGDRVTITCSASQGINNFLTWYQQKPGKALKLLIYYTSSLHSGVPSRFSGSGSGTDYTLTISSLQPEDFATYYCQQYSNLPFTFGQGTKVEIK"
,,,0.5,,~0.5,"h5D3 variant LVg2HVg4 (antibody, human IgG1, V domains shown, Full-length human IgG1 kappa variant of h5D3 (antibody 6)) VH: EVQLVESGGGLVQPGGSLRLSCAASGYAFQTSWMNWVRQAPGKGLEWISRIYPGEGDTNYNAKFKGKATISADKSKNTLYLQMNSLRAEDTAVYYCARGEWYLYYFDYWGQGTLVTVSS VL: DIQMTQSPSSLSASVGDRVTITCSASQGIENFLTWYQQKPGKALKLLIYYTSSLHSGVPSRFSGSGSGTDYTLTISSLQPEDFATYYCQQYSNLPFTFGQGTKVEIK"

# From US20250282890A1 (TECHNISCHE UNIVERSIT T M NCHEN, published 2025)
